These results are taken from publication PMC8666670 (2021).

For orientation: Kd means a measure of binding affinity in units of concentration.

The target in the test is GlmU, glucosamine-1-phosphate N-acetyl transferase/N-acetyl-glucosamine-1-phosphate uridylyltransferase of E. … (E. coli, UniProt P0ACC7 1-456). The test is described as follows: SPR.
GlmU, glucosamine-1-phosphate N-acetyl transferase/N-acetyl-glucosamine-1-phosphate uridylyltransferase of E. …, sequence (P0ACC7 whole entry): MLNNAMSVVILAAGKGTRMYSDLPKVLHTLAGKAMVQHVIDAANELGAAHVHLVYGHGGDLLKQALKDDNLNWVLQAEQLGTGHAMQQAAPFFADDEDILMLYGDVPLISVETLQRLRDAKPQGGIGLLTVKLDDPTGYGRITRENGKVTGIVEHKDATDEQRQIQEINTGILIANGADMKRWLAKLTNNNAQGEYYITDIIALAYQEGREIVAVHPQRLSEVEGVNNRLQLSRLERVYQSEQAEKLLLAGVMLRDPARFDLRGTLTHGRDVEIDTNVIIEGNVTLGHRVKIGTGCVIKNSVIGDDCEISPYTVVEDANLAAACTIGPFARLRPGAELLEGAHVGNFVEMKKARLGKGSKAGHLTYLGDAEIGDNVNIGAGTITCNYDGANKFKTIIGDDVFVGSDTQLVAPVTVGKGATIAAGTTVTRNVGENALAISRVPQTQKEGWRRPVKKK

B1: acetyl-acyl carrier protein (acetyl-ACP) (natural protein)
chain: MSTIEERVKKIIGEQLGVKQEEVTNNASFVEDLGADSLDTVELVMALEEEFDTEIPDEEAEKITTVQAAIDYINGHQA
modifications: prosthetic group with attached acetyl chain (acetyl thioester), made from apo-ACP and acetyl-CoA with [ACP]synthase
Consider B1, for which binding was characterised by a dissociation constant (Kd) of 82.5 µM.
